Measured values reported in patent publication US20050261190A1.

Target: multiubiquitinated proteins (of HEK293T cells)
Assay: cell-based or functional assay

Chain of Flag-tagged hFAF1 (human Fas associated factor 1, full form) (Q9UNN5 other isoform, or with tags, fused parts or gaps): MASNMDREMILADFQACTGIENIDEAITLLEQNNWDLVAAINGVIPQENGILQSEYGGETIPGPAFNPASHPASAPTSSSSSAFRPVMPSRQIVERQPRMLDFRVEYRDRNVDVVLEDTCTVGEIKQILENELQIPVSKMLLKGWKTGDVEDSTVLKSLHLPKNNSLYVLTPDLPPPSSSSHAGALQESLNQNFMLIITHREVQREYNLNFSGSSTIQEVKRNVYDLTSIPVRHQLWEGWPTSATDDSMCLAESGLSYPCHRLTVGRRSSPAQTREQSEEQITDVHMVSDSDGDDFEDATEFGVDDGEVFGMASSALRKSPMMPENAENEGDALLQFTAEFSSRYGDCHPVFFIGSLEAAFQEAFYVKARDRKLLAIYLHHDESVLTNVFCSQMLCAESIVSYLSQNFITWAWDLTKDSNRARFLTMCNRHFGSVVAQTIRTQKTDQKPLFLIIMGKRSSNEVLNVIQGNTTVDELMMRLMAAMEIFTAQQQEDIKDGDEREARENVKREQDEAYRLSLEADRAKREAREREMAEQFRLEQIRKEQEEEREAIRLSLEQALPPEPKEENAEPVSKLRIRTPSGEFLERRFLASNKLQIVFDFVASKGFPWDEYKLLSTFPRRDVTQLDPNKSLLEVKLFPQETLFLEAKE

mean fluorescence intensity of the Ub^G76V-GFP reporter (flow cytometry): 2 fold
Substance: Flag-tagged hFAF1 (human Fas associated factor 1, full form) (from UniProt Q9UNN5 1-650)
